According to US20240317834A1, “COMPOSITIONS AND METHODS FOR NEUROLOGICAL DISEASES” (CODA BIOTHERAPEUTICS, INC., priority 2020, published 2024):

Tested on: Lenti-X 293T cells
Assay: YFP fluorescence quenching anion reporter plate reader assay of engineered receptors stimulated with acetylcholine or a non-native ligand
Format: cell-based
Details: for percent quench of YFP fluorescence, 10 uM ach: acetylcholine 10 uM; for percent quench of YFP fluorescence, 100 uM ach: acetylcholine 100 uM; for percent quench of YFP fluorescence, 1 mM ach: acetylcholine 1 mM; for percent quench of YFP fluorescence, 3 mM ach: acetylcholine 3 mM
Method in brief: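 Lenti-X 293T cells carrying a YFP anion reporter were transiently transfected with channel DNA and assayed the next day in HEPES-buffered ECS at pH 7.2. Ligand (acetylcholine or non-native ligand) was added in NaI-substituted ECS. Percent quench was the mean of the last 10 s relative to the 15 s pre-addition baseline.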

B1: CODA75: non-responding chimeric engineered receptor used as the negative control (protein)
chain: MRCSPGGVWLALAASLLHVSLQGEFQRKLYKELVKNYNPLERPVANDSQPLTVYFSLSLLQIMDVDEKNQVLTTNIWLQMSWTDHYLQWNVSEYPGVKTVRFPDGQIWKPDILLYNSADERFDATFHTNVLVNSSGHCQYLPPGIFKSSCYIDVRWFPFDVQHCKLKFGSWSYGGWSLDLQMQEADISGYIPNGEWDLVGIPGKRSERFYECCKEPYPDVTFTVTMRRRTGYYLIQMYIPSLLIVILSWISFWINMDAAPARVGLGITTVLTMTTQSSGSEIMPATSDSVPLIAQAIDIWMAVCLLFVFSALLEYAAVNFVSRQHKELLRFRRKRRHHKSPMLNLFQEDEAGEGRFNFSAYGMGPACLQAKDGISVKGANNSNTTNPPPAPSKSPEEMRKLFIQRAKKIDKISRIGFPMAFLIFNMFYWIIYKIVRREDVHNQ
modifications: synthetic sequence of chimeric LGIC
notes: non-responding chimeric engineered receptor used as the negative control
YFP fluorescence quenching using CNL001 (1 nM CNL001, first column): −8.496%
YFP fluorescence quenching using CNL001 (1 nM CNL001, second column): −2.266%
YFP fluorescence quenching using TC-5619/Bradanicline (1 nM brd): −13.39%
YFP fluorescence quenching using TC-5619/Bradanicline (3 nM brd): −15.78%
YFP fluorescence quenching using Varenicline (3 nM var, first column): 4.161
YFP fluorescence quenching using Varenicline (3 nM var, second column): −6.216
YFP fluorescence quenching using CNL001 (10 nM CNL001, first column): 1.816%
YFP fluorescence quenching using CNL001 (10 nM CNL001, second column): −4.649%
YFP fluorescence quenching using TC-5619/Bradanicline (10 nM brd): −13.47%
YFP fluorescence quenching using TC-5619/Bradanicline (30 nM brd): −16.41%
YFP fluorescence quenching using Facinicline (30 nM fac): −11.68
YFP fluorescence quenching using Varenicline (30 nM var, first column): −5.173
YFP fluorescence quenching using Varenicline (30 nM var, second column): −6.593
YFP fluorescence quenching using CNL001 (50 nM CNL001, first column): −5.922%
YFP fluorescence quenching using CNL001 (50 nM CNL001, second column): −5.597%
YFP fluorescence quenching using ABT-126 (50 nM abt): −17.07%
YFP fluorescence quenching using CNL001 (100 nM CNL001, first column): −8.159%
YFP fluorescence quenching using CNL001 (100 nM CNL001, second column): −5.058%
YFP fluorescence quenching using CNL002 (100 nM CNL002): −7.94%
YFP fluorescence quenching using ABT-126 (100 nM abt): −16.76%
YFP fluorescence quenching using AZD-0328 (100 nM azd0328): −8.83%
YFP fluorescence quenching using Facinicline (100 nM fac): 4.35
YFP fluorescence quenching using ABT-126 (300 nM abt): −16.76%
YFP fluorescence quenching using AZD-0328 (300 nM azd0328): −11.15%
YFP fluorescence quenching using TC-5619/Bradanicline (300 nM brd): −17.56%
YFP fluorescence quenching using Facinicline (300 nM fac): −10.55
YFP fluorescence quenching using Varenicline (300 nM var, first column): −5.733
YFP fluorescence quenching using Varenicline (300 nM var, second column): −7.312
YFP fluorescence quenching using ABT-126 (500 nM abt): −14.68%
YFP fluorescence quenching using Varenicline (500 nM var, first column): −10.35
YFP fluorescence quenching using Varenicline (500 nM var, second column): −7.586
YFP fluorescence quenching using CNL001 (1 uM CNL001, first column): −4.272%
YFP fluorescence quenching using CNL001 (1 uM CNL001, second column): −1.281%
YFP fluorescence quenching using CNL002 (1 uM CNL002): −9.81%
YFP fluorescence quenching using ABT-126 (1 uM abt): −16%
YFP fluorescence quenching using TC-6987 (1 uM tc6987): −11.79
YFP fluorescence quenching using Varenicline (1 uM var, first column): −5.637
YFP fluorescence quenching using Varenicline (1 uM var, second column): −3.757
YFP fluorescence quenching using ABT-126 (3 uM abt): −14.11%
YFP fluorescence quenching using ABT-126 (10 uM abt): −13.98%
YFP fluorescence quenching using TC-6987 (10 uM tc6987): −14.31
YFP fluorescence quenching using CNL002 (30 uM CNL002): −15.27%
YFP fluorescence quenching using ABT-126 (30 uM abt): −21.05%
YFP fluorescence quenching using AZD-0328 (30 uM azd0328): −11.92%
YFP fluorescence quenching using Facinicline (30 uM fac): −5.25
YFP fluorescence quenching using ABT-126 (50 uM abt): −21.35%
YFP fluorescence quenching using ABT-126 (100 uM abt): −24.12%
YFP fluorescence quenching using TC-6987 (500 uM tc6987): −19.65
percent quench of YFP fluorescence, 10 uM ach: −12.88%
percent quench of YFP fluorescence, 30 uM ach (acetylcholine 30 uM): −18.67%
percent quench of YFP fluorescence, 50 uM ach (acetylcholine 50 uM): −0.29%
percent quench of YFP fluorescence, 100 uM ach: −14.46%
percent quench of YFP fluorescence, 300 uM ach (acetylcholine 300 uM): −16.31%
percent quench of YFP fluorescence, 500 uM ach (acetylcholine 500 uM): −17.41%
percent quench of YFP fluorescence, 1 mM ach: −16.46%
percent quench of YFP fluorescence, 3 mM ach: −12.38%
percent quench of YFP fluorescence, 5 mM ach (acetylcholine 5 mM): −20.88%
percent quench of YFP fluorescence, 10 mM ach (acetylcholine 10 mM): −8.69%

B2: CODA1173: engineered chimeric LGIC receptor, S172D, Y210W in SEQ ID NO: 33 (protein)
chain: MRCSPGGVWLALAASLLHVSLQGEFQRKLYKELVKNYNPLERPVANDSQPLTVYFSLSLLQIMDVDEKNQVLTTNIWLQMSWTDHYLQWNVSEYPGVKTVRFPDGQIWKPDILLYNSADERFDATFHTNVLVNSSGHCQYLPPGIFKSSCPMDLKNFPMDVQTCKLKFGSWDYGGWSLDLQMQEADISGYIPNGEWDLVGIPGKRSERFWECCKEPYPDVTFTVTMRRRMGYYLIQMYIPSLLIVILSWISFWINMDAAPARVGLGITTVLTMTTQSSGSRASLPKVSYVKAIDIWMAVCLLFVFSALLEYAAVNFVSRQHKELLRFRRKRRHHKSPMLNLFQEDEAGEGRFNFSAYGMGPACLQAKDGISVKGANNSNTTNPPPAPSKSPEEMRKLFIQRAKKIDKISRIGFPMAFLIFNMFYWIIYKIVRREDVHNQ
modifications: synthetic sequence of chimeric LGIC
YFP fluorescence quenching using CNL001 (1 nM CNL001, first column): 16.321%
YFP fluorescence quenching using CNL001 (1 nM CNL001, second column): 30.264%
YFP fluorescence quenching using Varenicline (3 nM var, first column): 9.211
YFP fluorescence quenching using Varenicline (3 nM var, second column): 7.193
YFP fluorescence quenching using CNL001 (10 nM CNL001, first column): 61.978%
YFP fluorescence quenching using CNL001 (10 nM CNL001, second column): 65.343%
YFP fluorescence quenching using Varenicline (30 nM var, first column): 7.821
YFP fluorescence quenching using Varenicline (30 nM var, second column): 9.078
YFP fluorescence quenching using CNL001 (50 nM CNL001, first column): 73.006%
YFP fluorescence quenching using CNL001 (50 nM CNL001, second column): 74.903%
YFP fluorescence quenching using ABT-126 (50 nM abt): 5.15%
YFP fluorescence quenching using CNL001 (100 nM CNL001, first column): 76%
YFP fluorescence quenching using CNL001 (100 nM CNL001, second column): 76.759%
YFP fluorescence quenching using CNL002 (100 nM CNL002): 70.15%
YFP fluorescence quenching using ABT-126 (100 nM abt): 25.08%
YFP fluorescence quenching using ABT-126 (300 nM abt): 66.86%
YFP fluorescence quenching using Varenicline (300 nM var, first column): 6.933
YFP fluorescence quenching using Varenicline (300 nM var, second column): 8.36
YFP fluorescence quenching using Varenicline (500 nM var, first column): 5.501
YFP fluorescence quenching using Varenicline (500 nM var, second column): 7.04
YFP fluorescence quenching using CNL001 (1 uM CNL001, first column): 76.928%
YFP fluorescence quenching using CNL001 (1 uM CNL001, second column): 76.619%
YFP fluorescence quenching using CNL002 (1 uM CNL002): 77.33%
YFP fluorescence quenching using ABT-126 (1 uM abt): 66.94%
YFP fluorescence quenching using Varenicline (1 uM var, first column): 7.174
YFP fluorescence quenching using Varenicline (1 uM var, second column): 5.185
YFP fluorescence quenching using ABT-126 (10 uM abt): 78.67%
percent quench of YFP fluorescence, 1 mM ach: −6.12%
percent quench of YFP fluorescence, 3 mM ach: 11.31%

B3: CODA217: engineered chimeric LGIC receptor, W77F in SEQ ID NO: 33 (protein)
chain: MRCSPGGVWLALAASLLHVSLQGEFQRKLYKELVKNYNPLERPVANDSQPLTVYFSLSLLQIMDVDEKNQVLTTNIFLQMSWTDHYLQWNVSEYPGVKTVRFPDGQIWKPDILLYNSADERFDATFHTNVLVNSSGHCQYLPPGIFKSSCPMDLKNFPMDVQTCKLKFGSWSYGGWSLDLQMQEADISGYIPNGEWDLVGIPGKRSERFYECCKEPYPDVTFTVTMRRRMGYYLIQMYIPSLLIVILSWISFWINMDAAPARVGLGITTVLTMTTQSSGSRASLPKVSYVKAIDIWMAVCLLFVFSALLEYAAVNFVSRQHKELLRFRRKRRHHKSPMLNLFQEDEAGEGRFNFSAYGMGPACLQAKDGISVKGANNSNTTNPPPAPSKSPEEMRKLFIQRAKKIDKISRIGFPMAFLIFNMFYWIIYKIVRREDVHNQ
modifications: synthetic sequence of chimeric LGIC
YFP fluorescence quenching using CNL001 (1 nM CNL001, first column): −22.273%
YFP fluorescence quenching using CNL001 (1 nM CNL001, second column): −19.415%
YFP fluorescence quenching using TC-5619/Bradanicline (3 nM brd): −12.1%
YFP fluorescence quenching using Varenicline (3 nM var, first column): 5.662
YFP fluorescence quenching using Varenicline (3 nM var, second column): 7.57
YFP fluorescence quenching using CNL001 (10 nM CNL001, first column): −9.563%
YFP fluorescence quenching using CNL001 (10 nM CNL001, second column): 6.398%
YFP fluorescence quenching using TC-5619/Bradanicline (30 nM brd): −14.72%
YFP fluorescence quenching using Facinicline (30 nM fac): −10.14
YFP fluorescence quenching using Varenicline (30 nM var, first column): 13.968
YFP fluorescence quenching using Varenicline (30 nM var, second column): 19.079
YFP fluorescence quenching using CNL001 (50 nM CNL001, first column): 61.938%
YFP fluorescence quenching using CNL001 (50 nM CNL001, second column): 66.837%
YFP fluorescence quenching using ABT-126 (50 nM abt): 37.81%
YFP fluorescence quenching using CNL001 (100 nM CNL001, first column): 79.791%
YFP fluorescence quenching using CNL001 (100 nM CNL001, second column): 80.908%
YFP fluorescence quenching using CNL002 (100 nM CNL002): 67.81%
YFP fluorescence quenching using ABT-126 (100 nM abt): 57.31%
YFP fluorescence quenching using AZD-0328 (100 nM azd0328): −7.57%
YFP fluorescence quenching using ABT-126 (300 nM abt): 12.61%
YFP fluorescence quenching using AZD-0328 (300 nM azd0328): 7.08%
YFP fluorescence quenching using TC-5619/Bradanicline (300 nM brd): −6.3%
YFP fluorescence quenching using Facinicline (300 nM fac): 68.29
YFP fluorescence quenching using Varenicline (300 nM var, first column): 16.183
YFP fluorescence quenching using Varenicline (300 nM var, second column): 18.025
YFP fluorescence quenching using Varenicline (500 nM var, first column): 23.366
YFP fluorescence quenching using Varenicline (500 nM var, second column): 19.206
YFP fluorescence quenching using CNL001 (1 uM CNL001, first column): 83.444%
YFP fluorescence quenching using CNL001 (1 uM CNL001, second column): 83.905%
YFP fluorescence quenching using CNL002 (1 uM CNL002): 69.42%
YFP fluorescence quenching using ABT-126 (1 uM abt): 66.05%
YFP fluorescence quenching using TC-6987 (1 uM tc6987): −10.35
YFP fluorescence quenching using Varenicline (1 uM var, first column): 34.69
YFP fluorescence quenching using Varenicline (1 uM var, second column): 30.504
YFP fluorescence quenching using TC-6987 (10 uM tc6987): −13.93
YFP fluorescence quenching using CNL002 (30 uM CNL002): 73.64%
YFP fluorescence quenching using AZD-0328 (30 uM azd0328): 81.59%
YFP fluorescence quenching using Facinicline (30 uM fac): 87.35
YFP fluorescence quenching using TC-6987 (500 uM tc6987): −7.54
percent quench of YFP fluorescence, 10 uM ach: −5.86%
percent quench of YFP fluorescence, 100 uM ach: 70.06%
percent quench of YFP fluorescence, 1 mM ach: 68.71%
percent quench of YFP fluorescence, 3 mM ach: 73.45%
